From PMC7606452

Target: recombinant K18 tau K311Q (acetylation-mimic) (human)
Test: Thioflavin T fluorescence of heparin-induced aggregation; 10 μM K18 tau, 100 mM sodium acetate pH 7.0, 2 mM DTT, 10 μM heparin, 37 °C; 10 μM ThT, 430 nm excitation and 500 nm emission

Substance “recombinant K18 tau K311Q (acetylation-mimic) (domain or fragment)” has a fold increase in ThT-positive fibrils against WT or K311R of 3 fold.
